Values belong to the binder of their own block, whether it stands above or below them.
Target: T1, Strep-CD9P1-ECD (recombinant soluble human CD9P-1 extracellular domain with Strep tag) (human, UniProt Q9P2B2 22-832)
T1 construct: The limits 22-832 are stated for the recombinant extracellular domain made in CHO cells and used as immunogen; also called recombinant CD9P-1 extracellular domain; not shown: Strep tag; Residue numbers of the construct are 8 higher than those of CD9P-1
T1 sequence: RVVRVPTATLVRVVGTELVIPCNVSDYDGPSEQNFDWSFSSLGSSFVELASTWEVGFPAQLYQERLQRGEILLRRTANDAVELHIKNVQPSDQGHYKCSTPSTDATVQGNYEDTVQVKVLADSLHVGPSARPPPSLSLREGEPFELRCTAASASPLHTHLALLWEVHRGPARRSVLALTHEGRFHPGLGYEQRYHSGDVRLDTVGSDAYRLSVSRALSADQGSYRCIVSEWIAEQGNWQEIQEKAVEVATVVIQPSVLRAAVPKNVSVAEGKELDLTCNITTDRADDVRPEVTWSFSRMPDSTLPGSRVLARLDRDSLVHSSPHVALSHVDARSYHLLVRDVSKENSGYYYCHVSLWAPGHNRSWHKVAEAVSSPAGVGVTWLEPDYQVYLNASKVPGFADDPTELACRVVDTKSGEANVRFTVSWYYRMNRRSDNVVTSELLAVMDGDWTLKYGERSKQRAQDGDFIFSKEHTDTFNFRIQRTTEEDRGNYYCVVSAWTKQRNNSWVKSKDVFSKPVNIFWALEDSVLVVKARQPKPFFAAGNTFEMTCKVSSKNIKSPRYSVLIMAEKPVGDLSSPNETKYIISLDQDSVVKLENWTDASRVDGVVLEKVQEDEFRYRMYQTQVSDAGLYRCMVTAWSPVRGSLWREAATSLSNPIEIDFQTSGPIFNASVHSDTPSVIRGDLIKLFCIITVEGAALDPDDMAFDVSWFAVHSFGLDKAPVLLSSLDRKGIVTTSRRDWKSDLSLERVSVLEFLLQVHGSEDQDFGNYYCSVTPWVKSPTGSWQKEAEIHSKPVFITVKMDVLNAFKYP
Experiment: SPR; Strep-CD9P1-ECD coated on sensor chip, antibody flowed over
Source text: Recombinant Strep-CD9P1-ECD was coated on sensor chip and several concentrations of the antibodies were flowed over the chip to obtain binding and dissociation kinetics.

Kd: 90.9 nM
koff: 0.00491 s⁻¹
kon: 54100 M⁻¹ s⁻¹
B1: 9bF4 mAb (mouse anti-human CD9P-1 monoclonal antibody, hybridoma CNCM I-5213) (antibody, V domains shown)
VH: QVQLQQSGAELVKPGTSVKLSCKTSGYTFTSYWIQWIKQRPGQGLGWIGEIFPGTGTTSYHEKFKGKATLTIDTSSSTAYLQLSNLTSEDSAVYFCSRDFDVWGAGTTVTVSS
VL: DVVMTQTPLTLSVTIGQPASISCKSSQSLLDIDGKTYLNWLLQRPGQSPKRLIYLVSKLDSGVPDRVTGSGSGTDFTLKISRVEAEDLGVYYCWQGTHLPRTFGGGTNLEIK
notes: Mouse IgG from a hybridoma, purified on protein G; also called Mouse IgG 9bF4; IgG 9bF4

Kd: 899 nM
koff: 0.0118 s⁻¹
kon: 13200 M⁻¹ s⁻¹
B2: 10bB1 mAb (mouse anti-human CD9P-1 monoclonal antibody, hybridoma CNCM I-5214) (antibody, V domains shown)
VH: B1 VH
VL: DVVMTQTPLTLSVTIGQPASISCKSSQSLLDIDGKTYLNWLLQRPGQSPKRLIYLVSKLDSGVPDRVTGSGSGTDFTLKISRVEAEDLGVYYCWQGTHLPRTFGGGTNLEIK
notes: Mouse IgG from a hybridoma; also called IgG 10bB1; 10bB11

Source: patent publication US20200172618A1 (GENE SIGNAL INTERNATIONAL, published 2020)
